Test results as given in the supplement of paper PMC10567573.

B1: CD69 (parent)
chain: FVAENSSLHPESGQENDATSPHFS
B2: ZNF8 (parent)
chain: RIHTGERPYMCKECGKAFSQNSSL

Variants of: B1
Test: protein stability index of a GFP-peptide fusion (GPS, HEK-293T) (PSI 1-6); higher = more stable
Conditions: c terminus: a fixed tail appended
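Further: lentivirally expressed fusions sorted by FACS into six bins by GFP to DsRed ratio, PSI derived from sequencing read proportions per bin multiplied by bin number.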

For FVAENSSLHPESGQENDATSPSFS, which protein stability index is on record?
Its protein stability index is 2.86.

With FVAENSSLHPESGQENDATSPTFS as the variant, how does the protein stability index read?
Its protein stability index is 3.11.

Which protein stability index does the source give for FVAENSSLHPESGQENDATSPVFS here?
Its protein stability index is 3.54.

For FVAENSSLHPESGQENDATSPWFS, which protein stability index is on record?
The protein stability index was 2.72.

Which protein stability index does the source give for FVAENSSLHPESGQENDATSPYFS here?
Its protein stability index is 1.72.

For FVAENSSLHPESGQENDATSPHAS, which protein stability index is on record?
Its protein stability index is 3.55.

For FVAENSSLHPESGQENDATSPHCS, which protein stability index is on record?
The protein stability index was 3.19.

With FVAENSSLHPESGQENDATSPHDS as the variant, how does the protein stability index read?
Its protein stability index is 4.53.

Which protein stability index does the source give for FVAENSSLHPESGQENDATSPHES here?
Its protein stability index is 4.17.

Which protein stability index does the source give for FVAENSSLHPESGQENDATSPHGS here?
Its protein stability index is 3.58.

Which protein stability index does the source give for FVAENSSLHPESGQENDATSPHHS here?
Its protein stability index is 3.56.

Which protein stability index does the source give for FVAENSSLHPESGQENDATSPHIS here?
Its protein stability index is 3.46.

Which protein stability index does the source give for FVAENSSLHPESGQENDATSPHKS here?
The protein stability index was 4.07.

Which protein stability index does the source give for FVAENSSLHPESGQENDATSPHLS here?
The protein stability index was 3.55.

For FVAENSSLHPESGQENDATSPHMS, which protein stability index is on record?
The protein stability index was 3.56.

With FVAENSSLHPESGQENDATSPHNS as the variant, how does the protein stability index read?
Its protein stability index is 3.8.

Which protein stability index does the source give for FVAENSSLHPESGQENDATSPHPS here?
The protein stability index was 3.37.

Which protein stability index does the source give for FVAENSSLHPESGQENDATSPHQS here?
Its protein stability index is 3.8.

For FVAENSSLHPESGQENDATSPHRS, which protein stability index is on record?
Its protein stability index is 3.22.

Which protein stability index does the source give for FVAENSSLHPESGQENDATSPHSS here?
The protein stability index was 4.12.

With FVAENSSLHPESGQENDATSPHTS as the variant, how does the protein stability index read?
The protein stability index was 3.61.

With FVAENSSLHPESGQENDATSPHVS as the variant, how does the protein stability index read?
The protein stability index was 3.59.

With FVAENSSLHPESGQENDATSPHWS as the variant, how does the protein stability index read?
The protein stability index was 2.02.

Which protein stability index does the source give for FVAENSSLHPESGQENDATSPHYS here?
The protein stability index was 3.09.

For FVAENSSLHPESGQENDATSPHFA, which protein stability index is on record?
The protein stability index was 3.55.

For FVAENSSLHPESGQENDATSPHFC, which protein stability index is on record?
The protein stability index was 2.5.

For FVAENSSLHPESGQENDATSPHFD, which protein stability index is on record?
The protein stability index was 3.9.

With FVAENSSLHPESGQENDATSPHFE as the variant, how does the protein stability index read?
Its protein stability index is 3.75.

With FVAENSSLHPESGQENDATSPHFF as the variant, how does the protein stability index read?
Its protein stability index is 2.27.

For FVAENSSLHPESGQENDATSPHFG, which protein stability index is on record?
Its protein stability index is 3.13.

With FVAENSSLHPESGQENDATSPHFH as the variant, how does the protein stability index read?
Its protein stability index is 3.55.

For FVAENSSLHPESGQENDATSPHFI, which protein stability index is on record?
The protein stability index was 2.19.

Which protein stability index does the source give for FVAENSSLHPESGQENDATSPHFK here?
The protein stability index was 2.91.

With FVAENSSLHPESGQENDATSPHFL as the variant, how does the protein stability index read?
The protein stability index was 3.04.

With FVAENSSLHPESGQENDATSPHFM as the variant, how does the protein stability index read?
The protein stability index was 2.09.

Which protein stability index does the source give for FVAENSSLHPESGQENDATSPHFN here?
Its protein stability index is 2.92.

For FVAENSSLHPESGQENDATSPHFP, which protein stability index is on record?
Its protein stability index is 2.57.

Which protein stability index does the source give for FVAENSSLHPESGQENDATSPHFQ here?
The protein stability index was 2.78.

With FVAENSSLHPESGQENDATSPHFR as the variant, how does the protein stability index read?
The protein stability index was 1.77.

Which protein stability index does the source give for FVAENSSLHPESGQENDATSPHFT here?
The protein stability index was 3.27.

With FVAENSSLHPESGQENDATSPHFV as the variant, how does the protein stability index read?
Its protein stability index is 2.77.

Which protein stability index does the source give for FVAENSSLHPESGQENDATSPHFY here?
Its protein stability index is 2.38.

Variants of: B2
Test: as above
Conditions: c terminus: a fixed tail appended

Which protein stability index does the source give for AIHTGERPYMCKECGKAFSQNSSL here?
The protein stability index was 2.93.

Which protein stability index does the source give for CIHTGERPYMCKECGKAFSQNSSL here?
The protein stability index was 4.88.

For DIHTGERPYMCKECGKAFSQNSSL, which protein stability index is on record?
The protein stability index was 2.71.

Which protein stability index does the source give for EIHTGERPYMCKECGKAFSQNSSL here?
The protein stability index was 2.87.

For FIHTGERPYMCKECGKAFSQNSSL, which protein stability index is on record?
Its protein stability index is 1.97.

For GIHTGERPYMCKECGKAFSQNSSL, which protein stability index is on record?
Its protein stability index is 3.34.

For HIHTGERPYMCKECGKAFSQNSSL, which protein stability index is on record?
Its protein stability index is 3.56.

Which protein stability index does the source give for IIHTGERPYMCKECGKAFSQNSSL here?
The protein stability index was 2.77.

Which protein stability index does the source give for KIHTGERPYMCKECGKAFSQNSSL here?
Its protein stability index is 3.01.

With LIHTGERPYMCKECGKAFSQNSSL as the variant, how does the protein stability index read?
Its protein stability index is 2.63.

For MIHTGERPYMCKECGKAFSQNSSL, which protein stability index is on record?
Its protein stability index is 3.04.

For NIHTGERPYMCKECGKAFSQNSSL, which protein stability index is on record?
Its protein stability index is 2.85.

With PIHTGERPYMCKECGKAFSQNSSL as the variant, how does the protein stability index read?
Its protein stability index is 3.17.

Which protein stability index does the source give for QIHTGERPYMCKECGKAFSQNSSL here?
The protein stability index was 2.75.

With SIHTGERPYMCKECGKAFSQNSSL as the variant, how does the protein stability index read?
The protein stability index was 3.19.

For TIHTGERPYMCKECGKAFSQNSSL, which protein stability index is on record?
The protein stability index was 3.22.

With VIHTGERPYMCKECGKAFSQNSSL as the variant, how does the protein stability index read?
The protein stability index was 2.88.

Which protein stability index does the source give for WIHTGERPYMCKECGKAFSQNSSL here?
The protein stability index was 2.27.

Which protein stability index does the source give for YIHTGERPYMCKECGKAFSQNSSL here?
Its protein stability index is 2.2.

For RAHTGERPYMCKECGKAFSQNSSL, which protein stability index is on record?
The protein stability index was 2.41.

With RCHTGERPYMCKECGKAFSQNSSL as the variant, how does the protein stability index read?
Its protein stability index is 2.85.

Which protein stability index does the source give for RDHTGERPYMCKECGKAFSQNSSL here?
The protein stability index was 2.43.

For REHTGERPYMCKECGKAFSQNSSL, which protein stability index is on record?
Its protein stability index is 2.87.

Which protein stability index does the source give for RFHTGERPYMCKECGKAFSQNSSL here?
The protein stability index was 2.5.

With RGHTGERPYMCKECGKAFSQNSSL as the variant, how does the protein stability index read?
The protein stability index was 2.78.

Which protein stability index does the source give for RHHTGERPYMCKECGKAFSQNSSL here?
Its protein stability index is 2.38.

With RKHTGERPYMCKECGKAFSQNSSL as the variant, how does the protein stability index read?
The protein stability index was 2.51.

With RLHTGERPYMCKECGKAFSQNSSL as the variant, how does the protein stability index read?
The protein stability index was 2.35.

For RMHTGERPYMCKECGKAFSQNSSL, which protein stability index is on record?
The protein stability index was 2.44.

Which protein stability index does the source give for RNHTGERPYMCKECGKAFSQNSSL here?
The protein stability index was 3.13.

Which protein stability index does the source give for RPHTGERPYMCKECGKAFSQNSSL here?
The protein stability index was 3.72.

For RQHTGERPYMCKECGKAFSQNSSL, which protein stability index is on record?
Its protein stability index is 3.57.

With RRHTGERPYMCKECGKAFSQNSSL as the variant, how does the protein stability index read?
The protein stability index was 2.94.

For RSHTGERPYMCKECGKAFSQNSSL, which protein stability index is on record?
Its protein stability index is 2.75.

With RTHTGERPYMCKECGKAFSQNSSL as the variant, how does the protein stability index read?
Its protein stability index is 1.74.

With RVHTGERPYMCKECGKAFSQNSSL as the variant, how does the protein stability index read?
Its protein stability index is 2.29.

Which protein stability index does the source give for RWHTGERPYMCKECGKAFSQNSSL here?
Its protein stability index is 2.33.

Which protein stability index does the source give for RYHTGERPYMCKECGKAFSQNSSL here?
The protein stability index was 2.73.

With RIATGERPYMCKECGKAFSQNSSL as the variant, how does the protein stability index read?
The protein stability index was 1.99.

Which protein stability index does the source give for RICTGERPYMCKECGKAFSQNSSL here?
The protein stability index was 3.28.

With RIDTGERPYMCKECGKAFSQNSSL as the variant, how does the protein stability index read?
Its protein stability index is 2.91.

With RIETGERPYMCKECGKAFSQNSSL as the variant, how does the protein stability index read?
The protein stability index was 3.1.

Which protein stability index does the source give for RIFTGERPYMCKECGKAFSQNSSL here?
Its protein stability index is 1.9.

Which protein stability index does the source give for RIGTGERPYMCKECGKAFSQNSSL here?
The protein stability index was 3.12.

Which protein stability index does the source give for RIITGERPYMCKECGKAFSQNSSL here?
Its protein stability index is 2.74.

With RIKTGERPYMCKECGKAFSQNSSL as the variant, how does the protein stability index read?
The protein stability index was 2.46.

Which protein stability index does the source give for RILTGERPYMCKECGKAFSQNSSL here?
Its protein stability index is 2.25.

Which protein stability index does the source give for RIMTGERPYMCKECGKAFSQNSSL here?
Its protein stability index is 2.49.

For RINTGERPYMCKECGKAFSQNSSL, which protein stability index is on record?
Its protein stability index is 2.81.

Which protein stability index does the source give for RIPTGERPYMCKECGKAFSQNSSL here?
The protein stability index was 2.38.

Which protein stability index does the source give for RIQTGERPYMCKECGKAFSQNSSL here?
Its protein stability index is 2.47.

With RIRTGERPYMCKECGKAFSQNSSL as the variant, how does the protein stability index read?
Its protein stability index is 1.96.
